Positions count from the first letter of the chain named.

Sequences and labels used below:
B1: antibody C4P7 (antibody, V domains shown)
VH: EVQLLESGGGLVQPGGSLRLSCAASGFTFSSYAMSWVRQAPGKGLEWVSSLTGSGGSTYYRDSVKGRFTIFRDNSKKTLYMQMNSLRAEDTAVYYCAKEGAYSYDFWYFDLWGRGTLVTVSS
VL: EIVLTQSPGTLSLSPGERATLSCRASQTVSGNYLAWYQQKPGQSPSLLIYGASSRATGIPDRFTGSGSGTDFTLTISRLEPADFAVYYCQQYGRPLTFGGGTKVEIK
B2: antibody G7P3 (antibody, V domains shown)
VH: EVQLVESGGGLVQPGGSLRLSCAASGFSFGSYSMNWVRQAPGKGLEWVSHISSGSSSIYYADSVKGRFTISRDSVKNSLYLQMNNLRAEDTAVYYCARGWTGYDAFDIWGQGTMVTVSS
VL: DIQMTQSPSSLSASVGDRVTITCRASQVISNYLAWYQEKPGKVPKLLIYAASTLQSGVPSRFSGSGTGTDFTLTIRSLQPEDVATYYCQKYNNAPLTFGGGTKVEIK
B3: antibody E8P5 (antibody, V domains shown)
VH: B2 VH with Q13H, S28R, S31T, Y95F
VL: B2 VL with K42E, R76S
B4: antibody E10P5 (antibody, V domains shown)
VH: QVQLQESGPGLVKPSQTLSLTCSVSGGSISSGNYYWSWIRQPAGKGLEWIGRIYTSGNTNYNPSLKSRVTMSVDTSKNQFSLKLSSVTATDTAVYYCARVRRDGYNAFDYWGQGTLVTVSS
VL: SYELTQPPSVSVSPGQTASIDCSGHNLGDKFTCWYQQKPGQSPVLVIYQDSKRPSGIPERFSGSNSGNTATLTISGTQAMDEADYYCQAWDSDTLYVFGTGTTVTVL
B5: antibody B7P3 (antibody, V domains shown)
VH: EVQLVESGGGVVQPGRSLRLSCAASGFTFSNFGMHWVRQPPGKGLEWVAVISYDGSDKFYADSVKGRFTISRDNFKNTLYVQMNSLRAEDTAVYYCAKDRVRTKYYYDHSGPFDYWGRGTLVTVSS
VL: SYVLTQPPSVSVAPGQTARIACGGNNIGSKSVHWYQQRPGQAPVLVVYDDDDRPSGIPERFSGSNSGNTATLTISRVEAGDEADYFCQVWMTNSDRPVFGGGTKLTVL
B6: antibody C10P8 (antibody, V domains shown)
VH: QVQLQESGPGLVKPSQTLSLTCTVSGGSISSGRYYWSWIRQPAGKGLEWIGRVYFSGSTNYNPSLKNRVTLSVDTSKNQFSLKLSSVIAADTAVYYCARAVRDYGDSYSFDYWGQGTLVTVSS
VL: QSALTQPASVSGSPGQSITISCTGSSSDIGGYNYVSWYQVHPGKAPHLKIYDVVNRPSGVSNRFPGSKSGNTASLTISGLLADDEAYYYCCSYSIRGTPVFGGGTKLTVL

The target in one experiment is VP1 pentamer of BKV genotype II (recombinant) (BK virus genotype II), P14996. Briefly: ELISA, coated VP1 pentamer. The note with it: remark: other sources report otherwise.
For the molecule B1, the EC50 was 5 µg/mL.
Take B2: the concentration giving a half-maximal response (EC50) was 0.04 µg/mL.
For B3, the EC50 came to 0.08 µg/mL.
Consider B4, for which the EC50 turned out to be 0.065 µg/mL.
For B5, the EC50 was 5.5 µg/mL.

A further experiment addresses VP1 pentamer of BKV genotype IV (recombinant) (BK virus genotype IV), P14996. Description: ELISA, coated VP1 pentamer. The note with it: remark: other sources report otherwise.
As to B6, the concentration giving a half-maximal response (EC50) was determined as 10 µg/mL.

The values are drawn from patent EP4659811A1.
